Results from patent publication US20190309059A1 (SHANGHAI PHARMAEXPLORER, published 2019).

Experiments:
[1] = target: his-labeled human IL-13 (immunogen A) (human) (UniProt P35225); assay: cell-based or functional assay
[2] = target: cynomolgus IL-13 (purchased from sino biological) (cynomolgus) (UniProt Q0PW92); assay: ELISA, cynomolgus IL-13; antibody at 0.53 nM
[3] = target: cynomolgus IL-13 (purchased from sino biological) (cynomolgus) (UniProt Q0PW92); assay: ELISA, cynomolgus IL-13; antibody at 2.67 nM
[4] = target: cynomolgus IL-13 (purchased from sino biological) (cynomolgus) (UniProt Q0PW92); assay: ELISA, cynomolgus IL-13; antibody at 0.004 nM
[5] = target: cynomolgus IL-13 (purchased from sino biological) (cynomolgus) (UniProt Q0PW92); assay: ELISA, cynomolgus IL-13; antibody at 0.021 nM
[6] = target: his-labeled human IL-13 (immunogen A) (human) (UniProt P35225); assay: ELISA, biotin-immunogen A; antibody at 0.11 nM
[7] = target: his-labeled human IL-13 (immunogen A) (human) (UniProt P35225); assay: ELISA, biotin-immunogen A; antibody at 0.53 nM
[8] = target: his-labeled human IL-13R130Q variant (human) (UniProt P35225); assay: ELISA, IL-13R130Q variant; antibody at 0.11 nM
Sequence of his-labeled human IL-13R130Q variant (human) (P35225 other isoform, or with tags, fused parts or gaps mutant): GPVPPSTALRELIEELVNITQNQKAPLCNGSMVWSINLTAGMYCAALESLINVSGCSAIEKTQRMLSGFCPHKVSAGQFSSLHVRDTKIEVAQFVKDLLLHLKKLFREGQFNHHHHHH

[9] = target: his-labeled human IL-13R130Q variant (human) (UniProt P35225); assay: ELISA, IL-13R130Q variant; antibody at 0.53 nM
[10] = target: his-labeled human IL-13R130Q variant (human) (UniProt P35225); assay: ELISA, IL-13R130Q variant; antibody at 2.67 nM
[11] = target: his-labeled human IL-13 (immunogen A) (human) (UniProt P35225); assay: SPR (Biacore)
[12] = target: his-labeled human IL-13 (immunogen A) (human) (UniProt P35225); assay: ELISA, biotin-immunogen A; antibody at 13.33 nM
[13] = target: his-labeled human IL-13R130Q variant (human) (UniProt P35225); assay: ELISA, IL-13R130Q variant; antibody at 0.021 nM
[14] = target: his-labeled human IL-13 (immunogen A) (human) (UniProt P35225); assay: FACS blocking, biotin-IL-13 on IL-13Ra2 HEK293 cells; antibody at 0.01 nM
[15] = target: his-labeled human IL-13 (immunogen A) (human) (UniProt P35225); assay: FACS blocking, biotin-IL-13 on IL-13Ra2 HEK293 cells; antibody at 0.05 nM
[16] = target: his-labeled human IL-13 (immunogen A) (human) (UniProt P35225); assay: FACS blocking, biotin-IL-13 on IL-13Ra2 HEK293 cells; antibody at 0.27 nM
[17] = target: his-labeled human IL-13 (immunogen A) (human) (UniProt P35225); assay: FACS blocking, biotin-IL-13 on IL-13Ra2 HEK293 cells; antibody at 1.33 nM
[18] = target: his-labeled human IL-13 (immunogen A) (human) (UniProt P35225); assay: FACS blocking, biotin-IL-13 on IL-13Ra2 HEK293 cells; antibody at 6.67 nM
[19] = target: his-labeled human IL-13 (immunogen A) (human) (UniProt P35225); assay: FACS blocking, biotin-IL-13 on IL-13Ra2 HEK293 cells; antibody at 0.002 nM
[20] = target: his-labeled human IL-13 (immunogen A) (human) (UniProt P35225); assay: FACS blocking, biotin-IL-13 on IL-13Ra2 HEK293 cells; antibody at 33.33 nM
[21] = target: his-labeled human IL-13 (immunogen A) (human) (UniProt P35225); assay: FACS blocking, biotin-IL-13 on IL-13Ra2 HEK293 cells; antibody at 166.67 nM
[22] = target: his-labeled human IL-13 (immunogen A) (human) (UniProt P35225); assay: FACS blocking, biotin-IL-13 on IL-13Ra1/IL-4Ra HEK293 cells; antibody at 0.01 nM
[23] = target: his-labeled human IL-13 (immunogen A) (human) (UniProt P35225); assay: FACS blocking, biotin-IL-13 on IL-13Ra1/IL-4Ra HEK293 cells; antibody at 0.05 nM
[24] = target: his-labeled human IL-13 (immunogen A) (human) (UniProt P35225); assay: FACS blocking, biotin-IL-13 on IL-13Ra1/IL-4Ra HEK293 cells; antibody at 0.27 nM
[25] = target: his-labeled human IL-13 (immunogen A) (human) (UniProt P35225); assay: FACS blocking, biotin-IL-13 on IL-13Ra1/IL-4Ra HEK293 cells; antibody at 1.33 nM
[26] = target: his-labeled human IL-13 (immunogen A) (human) (UniProt P35225); assay: FACS blocking, biotin-IL-13 on IL-13Ra1/IL-4Ra HEK293 cells; antibody at 6.67 nM
[27] = target: his-labeled human IL-13 (immunogen A) (human) (UniProt P35225); assay: FACS blocking, biotin-IL-13 on IL-13Ra1/IL-4Ra HEK293 cells; antibody at 0.002 nM
[28] = target: his-labeled human IL-13 (immunogen A) (human) (UniProt P35225); assay: FACS blocking, biotin-IL-13 on IL-13Ra1/IL-4Ra HEK293 cells; antibody at 33.33 nM
[29] = target: his-labeled human IL-13 (immunogen A) (human) (UniProt P35225); assay: FACS blocking, biotin-IL-13 on IL-13Ra1/IL-4Ra HEK293 cells; antibody at 166.67 nM

Sequence of cynomolgus IL-13 (purchased from sino biological) (cynomolgus) (Q0PW92 entry or part of it): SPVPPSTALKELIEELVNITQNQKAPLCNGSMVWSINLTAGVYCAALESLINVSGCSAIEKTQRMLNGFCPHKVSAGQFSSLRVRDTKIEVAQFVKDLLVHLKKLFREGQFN

- Periostin (pg/mL), MRCS cells + IL-13 5 ng/mL; antibody at 0.0002 nM [1]: 7100 pg/mL
- Periostin (pg/mL), MRCS cells + IL-13 5 ng/mL; antibody at 0.001 nM [1]: 6020 pg/mL
- Periostin (pg/mL), MRCS cells + IL-13 5 ng/mL; antibody at 0.004 nM [1]: 4870 pg/mL
- Periostin (pg/mL), MRCS cells + IL-13 5 ng/mL; antibody at 0.021 nM [1]: 4480 pg/mL
- Periostin (pg/mL), MRCS cells + IL-13 5 ng/mL; antibody at 0.11 nM [1]: 4360 pg/mL
- Periostin (pg/mL), MRCS cells + IL-13 5 ng/mL; antibody at 0.53 nM [1]: 4460 pg/mL
- Periostin (pg/mL), MRCS cells + IL-13 5 ng/mL; antibody at 2.67 nM [1]: 2850 pg/mL
- Periostin (pg/mL), MRCS cells + IL-13 5 ng/mL; antibody at 13.3 nM [1]: 1350 pg/mL
- TARC (pg/mL), A549 cells + IL-13 + TNFα; antibody at 0.001 nM [1]: 3200 pg/mL
- TARC (pg/mL), A549 cells + IL-13 + TNFα; antibody at 0.004 nM [1]: 3150 pg/mL
- TARC (pg/mL), A549 cells + IL-13 + TNFα; antibody at 0.021 nM [1]: 3040 pg/mL
- TARC (pg/mL), A549 cells + IL-13 + TNFα; antibody at 0.11 nM [1]: 2610 pg/mL
- TARC (pg/mL), A549 cells + IL-13 + TNFα; antibody at 0.53 nM [1]: 2370 pg/mL
- TARC (pg/mL), A549 cells + IL-13 + TNFα; antibody at 2.67 nM [1]: 1090 pg/mL
- TARC (pg/mL), A549 cells + IL-13 + TNFα; antibody at 13.3 nM [1]: 227 pg/mL
- TARC (pg/mL), A549 cells + IL-13 + TNFα; antibody at 66.7 nM [1]: 54 pg/mL
- VCAM-1 fluorescence intensity, HUVEC + IL-13 0.5 ng/mL + TNFα; antibody at 0.0002 nM [1]: 408
- VCAM-1 fluorescence intensity, HUVEC + IL-13 0.5 ng/mL + TNFα; antibody at 0.001 nM [1]: 402
- VCAM-1 fluorescence intensity, HUVEC + IL-13 0.5 ng/mL + TNFα; antibody at 0.004 nM [1]: 452
- VCAM-1 fluorescence intensity, HUVEC + IL-13 0.5 ng/mL + TNFα; antibody at 0.021 nM [1]: 408
- VCAM-1 fluorescence intensity, HUVEC + IL-13 0.5 ng/mL + TNFα; antibody at 0.11 nM [1]: 313
- VCAM-1 fluorescence intensity, HUVEC + IL-13 0.5 ng/mL + TNFα; antibody at 0.53 nM [1]: 299
- VCAM-1 fluorescence intensity, HUVEC + IL-13 0.5 ng/mL + TNFα; antibody at 2.67 nM [1]: 238
- VCAM-1 fluorescence intensity, HUVEC + IL-13 0.5 ng/mL + TNFα; antibody at 13.3 nM [1]: 165
- OD450 nm [2]: 0.59
- OD450 nm [3]: 1.63
- OD450 nm [4]: 0.061
- OD450 nm [5]: 0.136
- OD450 nm [6]: 0.59
- OD450 nm [7]: 1.63
- OD450 nm [8]: 0.97
- OD450 nm [9]: 2.4
- OD450 nm [10]: 3.1
- Kd [11]: < 90 nM
- OD450 nm [12]: 2.59
- OD450 nm [13]: 0.28
- mean fluorescence intensity [14]: 98.1
- mean fluorescence intensity [15]: 90
- mean fluorescence intensity [16]: 63.8
- mean fluorescence intensity [17]: 29
- mean fluorescence intensity [18]: 22.2
- mean fluorescence intensity [19]: 99.1
- mean fluorescence intensity [20]: 20.3
- mean fluorescence intensity [21]: 19.3
- mean fluorescence intensity [22]: 96.8
- mean fluorescence intensity [23]: 96.7
- mean fluorescence intensity [24]: 81.5
- mean fluorescence intensity [25]: 33.1
- mean fluorescence intensity [26]: 19.5
- mean fluorescence intensity [27]: 102
- mean fluorescence intensity [28]: 19.6
- mean fluorescence intensity [29]: 18.7
B1: c35E2C3 (mouse-human chimeric IL-13 antibody) (antibody, V domains shown)
VH: EVQLQESGPGLAKPSQTLSLTCSVTGYSITSDYWNWIRKFPGNKLEYMGYISYNGNTYYNPSLKSQISITRDTSKNQLYLQLKSATTEDTATYYCARLAKWTWYFDIWGTGTTVTVSS
VL: DIQMNQSPSSLSASLGDTITITCHASQNINVWLSWYQQKPGSLPKLLIYKASDLHTGVPSRFSGSGSGTGFTLTISSLQPEDIATYYCQQGQSYPYTFGGGTKLEIK
